Reference: US20250161472A1 (BIOATLA, published 2025)

What was measured:
[1] = biological target: human ROR2 expressed on the surface of HEK293 cells (human, UniProt Q01974 34-943); assay: cell-based or functional assay
[2] = biological target: T1, human ROR2 (receptor tyrosine kinase-like orphan receptor 2) (human, UniProt Q01974 34-403, limits assumed); assay: plate binding assay (ELISA per Example 1) on ROR2 at pH 6.0 and pH 7.4, 40 ng mAb, untreated and after 1 h at 60°C
T1 construct: Antigen of the ELISA, SPR and pH titration assays; also called hROR2

[3] = biological target: human ROR2 (receptor tyrosine kinase-like orphan receptor 2) (human) (UniProt Q01974); assay: affinity ELISA on human ROR2, signal at pH 6.0 over pH 7.4
[4] = biological target: human ROR2 (receptor tyrosine kinase-like orphan receptor 2) (human) (UniProt Q01974); assay: affinity ELISA on human ROR2, pH 7.4
[5] = biological target: human ROR2 (receptor tyrosine kinase-like orphan receptor 2) (human) (UniProt Q01974); assay: affinity ELISA on human ROR2, pH 6.0
[6] = biological target: T1, human ROR2 (receptor tyrosine …); assay: affinity ELISA on human ROR2, pH 6.0; set-up: unit not given here
[7] = biological target: T1, human ROR2 (receptor tyrosine …); assay: affinity ELISA on human ROR2, pH 7.4; set-up: unit not given here

T1 sequence (Q01974 34-403 limits assumed): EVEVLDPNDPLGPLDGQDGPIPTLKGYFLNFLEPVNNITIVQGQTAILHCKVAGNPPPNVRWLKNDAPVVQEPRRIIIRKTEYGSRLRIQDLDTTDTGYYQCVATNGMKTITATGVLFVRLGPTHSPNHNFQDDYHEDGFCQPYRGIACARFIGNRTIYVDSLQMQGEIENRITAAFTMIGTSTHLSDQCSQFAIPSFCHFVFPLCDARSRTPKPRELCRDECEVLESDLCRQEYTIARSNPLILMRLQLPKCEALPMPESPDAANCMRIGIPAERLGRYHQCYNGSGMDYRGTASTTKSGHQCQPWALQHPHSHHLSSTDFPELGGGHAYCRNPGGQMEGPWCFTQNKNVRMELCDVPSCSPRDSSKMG
human ROR2 (receptor tyrosine kinase-like orphan receptor 2) (human), sequence (Q01974 34-403 limits assumed): as above
human ROR2 expressed on the surface of HEK293 cells, sequence (Q01974 34-943): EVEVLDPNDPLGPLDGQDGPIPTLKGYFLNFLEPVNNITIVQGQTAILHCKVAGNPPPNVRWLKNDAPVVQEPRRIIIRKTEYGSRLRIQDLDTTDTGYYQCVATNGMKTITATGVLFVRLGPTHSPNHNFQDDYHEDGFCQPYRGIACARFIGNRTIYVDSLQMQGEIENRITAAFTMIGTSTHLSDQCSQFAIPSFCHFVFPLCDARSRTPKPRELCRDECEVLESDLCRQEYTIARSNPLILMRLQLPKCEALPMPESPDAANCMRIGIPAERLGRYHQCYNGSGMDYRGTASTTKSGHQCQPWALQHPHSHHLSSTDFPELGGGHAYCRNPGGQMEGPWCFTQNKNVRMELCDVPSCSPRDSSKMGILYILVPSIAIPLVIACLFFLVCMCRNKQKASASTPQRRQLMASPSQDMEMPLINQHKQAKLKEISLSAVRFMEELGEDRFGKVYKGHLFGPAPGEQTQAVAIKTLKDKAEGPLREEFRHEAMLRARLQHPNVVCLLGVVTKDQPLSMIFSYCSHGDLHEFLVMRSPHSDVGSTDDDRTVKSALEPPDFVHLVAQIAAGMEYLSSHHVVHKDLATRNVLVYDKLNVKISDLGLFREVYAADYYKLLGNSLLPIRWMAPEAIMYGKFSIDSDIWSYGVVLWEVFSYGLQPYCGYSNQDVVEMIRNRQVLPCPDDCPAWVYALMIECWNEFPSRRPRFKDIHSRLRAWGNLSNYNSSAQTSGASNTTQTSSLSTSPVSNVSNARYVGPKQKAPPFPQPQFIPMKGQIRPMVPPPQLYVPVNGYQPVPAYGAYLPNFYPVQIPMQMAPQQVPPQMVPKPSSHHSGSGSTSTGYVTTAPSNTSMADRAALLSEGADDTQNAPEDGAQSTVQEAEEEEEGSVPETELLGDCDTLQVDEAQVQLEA

B1: BAP048 conjugated to monomethyl auristatin E (BAP048 ADC) (other)
VL: AIQLTQSPSSLSASVGDRVTITCSATSSVSYMHWYLQKPGQSPQLLIYGTSNLASGVPDRFSGSGSGTDFTLKISRVEAEDVGVYYCQQRSSYPFTFGQGTKVEIK
VH: EVQLVQSGAEVKKPGESLRISCKGSGYTFTEYTMHWVRQAPGQGLEWMGGINTNNGGTGYNQKFKGRVTISADKSISTAYLQWSSLKASDTAMYYCAHGSLYSYGNSYFDYWGQGTLVTVSS
modifications: MMAE drug conjugate (site, chain and linker not stated in Example 5)
B1 was tested. Which “cell killing, difference of effective concentration between pH 7.4 and pH 6.0” value [1] did it give?
The value was roughly 10 fold.

B2: BAP048.7-humC02D09-CAB )#3947) (antibody, V domains shown)
VH: QVQLVQSGAEVKKPGASVKVSCKASGYTFTEYTMHWVRQARGQRLEWIGGINTNNGGTGYNQKFKGRVTISADKSISTAYLQWSSLKASDTAMYYCAHGSLYSYGNSYFDYWGQGTLVTVSS
VL: AIQLTQSPSSLSASVGDRVTITCSATSSVSYMHWYQQKPGQAPRLLIYGTSNLASGVPDRFSGSGSGTDFTLKISRVEAEDVGVYYCQQRSSYPFTFGQGTKVEIK
notes: The sheet says 'mAb'; also called BAP048.7-C02D09; ROR2-CAB1-ADC (as conjugate)
Does B2 bind [2]?
Result: binds

B3: BAP048.7-humA03F01-CAB (#3948) (antibody, V domains shown)
VH: EVQLVQSGAEVKKPGESLRISCKGSGYTFTEYTMHWIRQSPSRGLEWLGGINTNNGGTGYNQKFKGRVTISADKSISTAYLQWSSLKASDTAMYYCAHGSLYSYGNSYFDYWGQGTLVTVSS
VL: AIQLTQSPSSLSASVGDRVTITCSATSSVSYMHWYLQKPGQSPQLLIYGTSNLASGVPDRFSGSGSGTDFTLKISRVEAEDVGVYYCQQRSSYPFTFGQGTKVEIK
notes: The sheet says 'mAb'; also called BAP048.7-humA03F01 (#3948); BAP048.7-A03F01
Does B3 bind [2]?
Result: binds

B4: HC-N106E (antibody, V domains shown)
VH: EVQLQQSGPELVKPGASVKISCKTSGYTFTEYTMHWMKQSHRKSLEWIGGINTNNGGTGYNQKFKGKATLTVDKSSSTAYMELRSLTSEDSAVYFCARGSLYSYGESYFDYWGQGTLVTVSS
VL: QIVLTQSPAIMSASPGEKVTITCSATSSVSYMHWFQQKPGTSPKLWIYGTSNLASGVPARFSGSGSGTSYSLTISRMEAEDAATYYCQQRSSYPFTFGQGTKVEIK
Which results are given for B4?
ratio, pH 6.0/7.4 [3]: 1.95; Affinity ELISA, pH 7.4 [4]: 0.115; Affinity ELISA, pH 6.0 [5]: 0.224

B5: LC-F097D (antibody, V domains shown)
VH: EVQLQQSGPELVKPGASVKISCKTSGYTFTEYTMHWMKQSHRKSLEWIGGINTNNGGTGYNQKFKGKATLTVDKSSSTAYMELRSLTSEDSAVYFCARGSLYSYGNSYFDYWGQGTLVTVSS
VL: QIVLTQSPAIMSASPGEKVTITCSATSSVSYMHWFQQKPGTSPKLWIYGTSNLASGVPARFSGSGSGTSYSLTISRMEAEDAATYYCQQRSSYPFTDGQGTKVEIK
For B5, which ratio, pH 6.0/7.4 [3] is on record?
Its ratio, pH 6.0/7.4 is 1.77.

What about the Affinity ELISA, pH 7.4 [4] of the same binder?
The Affinity ELISA, pH 7.4 was 0.107.

And the Affinity ELISA, pH 6.0 [5]?
Its Affinity ELISA, pH 6.0 is 0.19.

B6: LC-Y031D (antibody, V domains shown)
VH: EVQLQQSGPELVKPGASVKISCKTSGYTFTEYTMHWMKQSHRKSLEWIGGINTNNGGTGYNQKFKGKATLTVDKSSSTAYMELRSLTSEDSAVYFCARGSLYSYGNSYFDYWGQGTLVTVSS
VL: QIVLTQSPAIMSASPGEKVTITCSATSSVSDMHWFQQKPGTSPKLWIYGTSNLASGVPARFSGSGSGTSYSLTISRMEAEDAATYYCQQRSSYPFTFGQGTKVEIK
notes: CPE single point mutant of parent VL 48.6-LC-WT
What does the source list for B6?
Affinity ELISA, pH 6.0 [6]: 0.911; Affinity ELISA, pH 7.4 [7]: 0.405

B7: LC-T096D (antibody, V domains shown)
VH: EVQLQQSGPELVKPGASVKISCKTSGYTFTEYTMHWMKQSHRKSLEWIGGINTNNGGTGYNQKFKGKATLTVDKSSSTAYMELRSLTSEDSAVYFCARGSLYSYGNSYFDYWGQGTLVTVSS
VL: QIVLTQSPAIMSASPGEKVTITCSATSSVSYMHWFQQKPGTSPKLWIYGTSNLASGVPARFSGSGSGTSYSLTISRMEAEDAATYYCQQRSSYPFDFGQGTKVEIK
notes: as for B6
For B7, which “Affinity ELISA, pH 6.0” value [6] is on record?
The value was 0.755.

And the “Affinity ELISA, pH 7.4” value [7]?
Its value is 0.474.

B8: LC-Y031C (antibody, V domains shown)
VH: EVQLQQSGPELVKPGASVKISCKTSGYTFTEYTMHWMKQSHRKSLEWIGGINTNNGGTGYNQKFKGKATLTVDKSSSTAYMELRSLTSEDSAVYFCARGSLYSYGNSYFDYWGQGTLVTVSS
VL: QIVLTQSPAIMSASPGEKVTITCSATSSVSCMHWFQQKPGTSPKLWIYGTSNLASGVPARFSGSGSGTSYSLTISRMEAEDAATYYCQQRSSYPFTFGQGTKVEIK
notes: as for B6
With B8 as the binder, how does the “Affinity ELISA, pH 6.0” value [6] read?
Its value is 1.34.

What about the “Affinity ELISA, pH 7.4” value [7] of the same binder?
The value was 0.7.
